6 molecules from US6495376 (dated 2002) can be followed below.

Assay [1] deals with T1, GST (UniProt P08515 1-218 = GST).
T1 construct: Control protein; also called control GST
The assay is described as follows: fluorescence anisotropy. A general note: Polarisation of emitted light reports the rotation of a fluorescent probe.

Another assay concerns the target T2, GST-WW-domain of Pin1 (human, UniProt Q13526 1-54).
T2 construct: range 1-54; also called GST-Pin1 WW-domain; Pin1 WW-domain; not shown: glutathione S-transferase (GST), N-terminal fusion partner
Put plainly: fluorescence anisotropy.

Assay [2] has as its target T1, GST. Put plainly: fluorescence anisotropy. The source holds these as a separate data set.
The target in another assay is T3, Pin1^Y23A (human, UniProt Q13526 1-163).
T3 construct: mature; also called Pin1^Y23A mutant
The assay is described as follows: ELISA.

Like-named read-outs stand apart in the source and are kept apart here. Where no end group is shown, it is not given here. [ ]: non-standard residue; d: D form. fluorescein = N-terminal fluorescein label; pT = C[C@@H](OP(=O)(O)O)[C@H](N)C(=O)O; pS = N[C@@H](COP(=O)(O)O)C(=O)O

With fluorescein-EQPL[pT]PVTDL (also called Cdc25C peptide) [Cdc25 Peptide EQPLpTPVTDL], the binding result with GST [1] is given as “no binding”.

For fluorescein-IPGTPPPNYD [Pro-Rich peptide IPGTPPPNYD], the binding result with GST [1] and with GST-WW-domain of Pin1 was “no binding” in each case.

With fluorescein-WFY[pS]PFLE (also called phosphopeptide) [Pintide analogue WFYpSPFLE], the binding result with GST [2] is recorded as “no binding”.

In the case of fluorescein-EQPLTPVTDL [Cdc25 Peptide EQPLTPVTDL (nonphosphorylated)], in the assay with GST [1], the binding result is listed as “no binding”.

On to fluorescein-WFYSPFLE (also called nonphosphorylated peptide) [WFYSPFLE, nonphosphorylated control peptide], for which the binding result with GST [2] was “no binding”.

B1: tau peptide KVAVVRTPPKSPS (pT-231), SEQ ID NO: 30 (peptide)
peptide: KVAVVR[pT]PPKSPS
notes: also called pT231 tau peptide (row of Pin1^Y23A)
With B1, the binding result with Pin1^Y23A is reported as “no binding”.
